This data set concerns the molecule itself. The experiment in a line: native MS; native ESI-MS (time-of-flight), 200 mM ammonium acetate pH 7.5, sample at 8 uM; without and with ADPNP, without and with the 155 bp DNA.

As a reminder, the stoichiometry N is a count of units in the complex or per binding partner.

B1: Thermus thermophilus GyrB-GyrA fusion protein (GyrBA-fus) (enzyme)
chain: MSYDASAIRVLKGLEGVRHRPAMYIGGTGVEGYHHLFKEILDNAVDEALAGYATEILVRLNEDGSLTVEDNGRGIPVDLMPEEGKPAVEVIYTTLHSGGKFEQGAYKVSGGLHGVGASVVNALSEWTVVEVFREGKHHRIAFSRGEVTEPLRVVGEAPRGKTGTRVTFKPDPEIFGNLRFDPSKIRARLREVAYLVAGLKLVFQDRQHGKEEVFLDKGGVASFAKALAEGEDLLYEKPFLIRGTHGEVEVEVGFLHTQGYNAEILTYANMIPTRDGGTHLTAFKSAYSRALNQYAKKAGLNKEKGPQPTGDDLLEGLYAVVSVKLPNPQFEGQTKGKLLNPEAGTAVGQVVYERLLEILEENPRIAKAVYEKALRAAQAREAARKARELVRRQNPLESDELPGKLADCQTENPEEAELFIVEGDSAGGSAKQGRDRRFQAILPLRGKILNVEKAGLSKALKNAEVRAMVSAIGVGIGGDGEAHFDLEGLRYHKIIIMTDADVDGSHIRTLLLTFFYRYMRPLIERGHVYIAQPPLYRLQVGKKVEYLYSDEELQARLKELEGKHYEVQRFKGLGEMNPEQLWETTMNPEKRVLKRVELQDALEASELFEKLMGQEVAPRREFIEEHARYAELDIGDLMAQVLPVEITEELKQSFINYAMSVIVDRALPDVRDGLKPVQRRILFGAYQEGVLPGRKHVKSAKIVGEVMGKYHPHGDAAIYDALVRMAQPWNLRYPLIDGQGNFGSIDGDPPAAQRYTEARLSPIGAEMLLDIDKDTVDFRPNYDGSLKEPEVLPAAIPNLLVNGASGIAVGMATSLPPHNLSEVVDALVAMIENPAITLEEVMRHLPGPDFPTGGKLSKKGIKEAYATGRGSLKVRAKVRVEEKGQRPVLVVTEIPYQVNKASLIAQIAALVKAKKIEDIVGLRDESDRQGLRIAIELKRGANPQVVLNQLYKHTALQTSFTVNLLAIVDGEPKVLSLLDLMRHYLDHRKEVVRRRSLFELRKAEERAHVLEGLLIALDHIDEVIALIRGSEDAPKARIALMERFGLSEAQAQAILDMRLQRLVALEREKLLEEYRGLMEEIARLKAILEDEARLLAEVKADLLRVKEKYGDARRTLITEFEETFNPEDLIEDEPMVITLTAQGFLKRLPLESYRAQGRGGKGLLAGRTKEEDEATHVFVADAHDDLLLFTNRGRVYRLKVYELPEMGRQARGVHVKSLLPLAEDEEVAALLSVRGLDQEGYLVFATERGLVKRTALKEYQNLGQAGLIAIRLQEGDRLVGVALSDPEDEAILATQEGQAIRFPLEEVRATGRDTQGVIGVRFKKPEDRVVSLVVVKPGEMVDLLSVSTRGYGKRTPLSEYPLQGRGGMGVITYAVSTKVGRLAALLKVRGGEDLLVLSRRGLAIRTPVAEIRQYSRATAGVRVMNLPEDDEVASAFVVEEEK
notes: DNA gyrase subunit B (GyrB), Thermus thermophilus, amplified from genomic DNA; three-amino acid G-D-L linker between the C-terminus of GyrB and the N-terminus of GyrA; DNA gyrase subunit A (GyrA), Thermus thermophilus, amplified from genomic DNA; The His10 tag stands upstream of a PreScission protease (P3C) site; Details of cloning and purification are in the Supplementary Methods; A dimer of the …
Consider B1, for which the “stoichiometry N” value came to 2.

Values taken from PMC3763546, “Structural insight into negative DNA supercoiling by DNA gyrase, a bacterial type 2A DNA topoisomerase” (Nucleic Acids Research, 2013).
